Consider one sequence from US20060153861A1, “BCR-ABL imatinib resistance-associated peptides and methods of use thereof” (priority 2004, published 2006).

Test [1] deals with HLA A0201 (Homo sapiens, UniProt P04439, D140Y/D185E/D98H/E176V/E277Q/G131W/G231S/I119V/I121R/I166T/I218V/L300P/L318F/N151K/N90K/P208A/P217A/Q86G/Q94H/R138H/R169H/T345S). As to the kind of experiment: BIMAS predicted score for binding to HLA A0201. The settings on record: analogue versus native CMLA2. The protocol: Peptides with potential CTL epitopes can be predicted by means of a peptide library-based scoring system for MHC class I-binding peptides. AA sequences of the human b3a2 and b2a2 fusion proteins were scanned for peptides with potential binding capacity for HLA A0201, a subtype encompassing 95% of the HLA-A02 allele. HLA-A0201 is expressed in about 40% of the Caucasian population.
Substitutions were determined using the software of the Bioinformatics & Molecular Analysis Section (National Institutes of Health, Washington, D.C.) (Parker K C, et al. J Immunol 1994;152(1):163-75; available at http://bimas.dcrt.nih.gov/cgi-bin/molbio/ken_parker_comboform), which ranks 9-mer or 10-mer peptides on a predicted half life dissociation coefficient from HLA class I molecules. Several analogue peptides were designed whereby one or both anchor amino acids or additional amino acids adjacent to anchor amino acids were modified. […] All the native peptides were predicted to have a half life of less than one minute. Most substitutions affected the primary or secondary anchor motifs (leucine in position 2 or valine in position 9 or 6) but in some cases, a tyrosine was substituted in position 1. […] Also depicted in Table 1 are the predicted half lives according to another software program, […] (Rammensee H G, et al., Immunogenetics 1995; 41(4): 178-228; available at http://syfpeithi.bmi-heidelberg.com).

For test [2], the system named is T cells from HLA A0201 donors challenged with peptide-pulsed T2 cells. The experiment in a line: Gamma interferon ELISPOT of T cells after in vitro stimulation with peptide. Type of test: cell-based, human. The settings on record: healthy HLA A0201 donors.
Test [3] concerns the target T1, HLA A0201 molecules (Homo sapiens, UniProt P04439, D140Y/D185E/D98H/E176V/E277Q/G131W/G231S/I119V/I121R/I166T/I218V/L300P/L318F/N151K/N90K/P208A/P217A/Q86G/Q94H/R138H/R169H/T345S).
T1 construct: endogenous in cells; host or cells: T2 (174xCEM.T2) human cell line
As to the kind of experiment: T2 assay for peptide binding to HLA A0201 molecules. To be noted: T2 cells, FIG. 1. The protocol:
T2 cells (TAP-, HLA-A0201^+) were incubated overnight at 27° C. at a concentration of 1×10^6 cells/ml in FCS-free RPMI medium supplemented with 5 μg/ml human β2microglobulin (Sigma, St Louis, Mo.) in the absence (negative control) or presence of either a positive reference tyrosinase peptide or test peptides at various final concentrations (50, 10, 1, and 0.1 μg/ml). Following a 4-hour incubation with 5 μg/ml brefeldin A (Sigma), T2 cells were labeled for 30 minutes at 4° C. with a saturating concentration of anti-HLA-A2.1 (BB7.2) monoclonal antibody (mAb), then washed twice. The cells were then incubated for 30 minutes at 4° C. with a saturating concentration of FITC-conjugated goat IgG F(ab′)2 anti-mouse Ig (Caltag, South San Francisco, Calif.), washed twice, fixed in PBS/1% paraformaldehyde and analyzed using a FACS Calibur® cytofluorometer (Becton Dickinson, Immunocytometry systems, San Jose, Calif.).
The mean intensity of fluorescence (MIF) observed for each peptide concentration (after dividing of the MIF observed without peptide) was used as an estimate of peptide binding and expressed as a fluorescence index. Stabilization assays were performed similarly. Following initial evaluation of peptide binding at time 0, cells were washed in RPMI complete medium to remove free peptides and incubated in the continuous presence of 0.5 pg/ml brefeldin-A for 2, 4, 6 or 8 hours. […]

With “YLKALQRPV (listed as Homo sapiens) [p210F]”, the “increase of BIMAS prediction” value in test [1] is reported as 700 fold. The “recognition of the native sequence by T cells elicited with the peptide” value in test [2] (T2 pulsed with native peptide) is listed as “able to recognize their respective native sequences”. In test [2] (second or third round of peptide stimulation, peptide-pulsed T2 targets), the “immune response (IFN-gamma secretion, ELISPOT)” value was “most consistent and significant immune-responses”. Besides, the “binding to HLA A0201 in the T2 assay” value in test [3] is “high avidity”.
